Biological target: human CD166 on human cells or tissue (human) (UniProt Q13740)
Assay: inhibition of adhesion of CD166-expressing HuT-78 cells to immobilized recombinant CD6

Sequence of human CD166 on human cells or tissue (human) (Q13740 28-583): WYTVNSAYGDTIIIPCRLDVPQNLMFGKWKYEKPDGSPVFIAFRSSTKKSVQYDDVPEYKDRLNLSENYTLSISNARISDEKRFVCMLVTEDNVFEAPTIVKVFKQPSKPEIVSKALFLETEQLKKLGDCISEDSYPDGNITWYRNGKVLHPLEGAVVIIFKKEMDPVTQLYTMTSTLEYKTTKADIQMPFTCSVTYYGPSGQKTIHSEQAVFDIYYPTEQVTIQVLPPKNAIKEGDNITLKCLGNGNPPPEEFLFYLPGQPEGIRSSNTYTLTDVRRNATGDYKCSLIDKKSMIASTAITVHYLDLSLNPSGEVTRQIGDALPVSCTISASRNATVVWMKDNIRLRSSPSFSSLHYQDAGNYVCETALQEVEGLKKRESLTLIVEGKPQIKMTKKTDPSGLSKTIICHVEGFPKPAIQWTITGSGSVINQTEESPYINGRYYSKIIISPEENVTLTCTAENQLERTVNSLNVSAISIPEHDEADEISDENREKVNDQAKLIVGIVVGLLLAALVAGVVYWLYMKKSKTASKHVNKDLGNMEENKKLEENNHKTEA

EC50: 3.7 nM
Substance: MAB656 (antibody)

Reference: US20160355587A1
